Measured values reported in the supplement of paper PMC10567573.

B1: CLPTM1 (parent)
chain: MNLHVYISEHEHFTDFNATSALFW
B2: VDR (parent)
chain: LIKFQVGLKKLNLHEEEHVLLMAI

Variants of: B1
Experiment: protein stability index of a GFP-peptide fusion (GPS, HEK-293T) (PSI 1-6); higher = more stable
Conditions: c terminus: a fixed tail appended
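Note: lentivirally expressed fusions sorted by FACS into six bins by GFP to DsRed ratio, PSI derived from sequencing read proportions per bin multiplied by bin number.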

Protein stability index, by site and new letter:
W24: R 2.96; Y 2.95; S 3.64; P 2.76; T 3.19; Q 2.2

Variants of: B2
Experiment: as above
Conditions: c terminus: a fixed tail appended

Protein stability index: each site, then its substitutions
I2: D 2.05; N 2.31; M 3.15; Y 2.93; Q 3.14; V 3; L 3.02; T 2.77; A 3.06; F 2.27; R 4.27; H 1.87; P 2.73
G7: Q 3.23; D 2.61; T 2.82; W 3.47; L 2.4; S 2.46; P 1.3; H 3.58; C 1.72; M 3.9; Y 2.11; K 2.84; A 2.15; F 1.75
L1: S 3.27; H 2.73; E 1.56; N 2.01; D 2.9; V 2.24; I 3.18; F 2.01; M 3.33; Q 2.25
N12: F 2.51; E 3.9; T 2.92; G 2.62; S 2.5; I 2.19
L11: P 2.34; A 2.56; K 2.98; D 2.78; C 3.35; M 2.93; Y 2.28; T 2.03; Q 2; E 3.86; F 2.14; I 3.2; W 2.1; S 2.29; R 1.3
F4: N 4.44; L 4.2; R 2.72; A 2.1; W 1.5; E 2.15; I 3.75; H 1.91; S 3.39; D 3.17; K 3.04; M 1.75; P 1.31; C 3; Q 2.09; Y 2.64; T 1.48
L13: T 3.36; Q 3.27; S 3.54; F 1.7; D 1.74; E 1.4; N 3.72; R 3.69; K 3.2; P 2.73; I 2.39; H 2.3; G 1.88; V 3.02; M 3.14
K9: D 2.79; Q 3.62; V 3.6; T 3.39; A 2.27; Y 4.29; L 2.97; P 3.16; F 3.38; I 1.03; C 5.08; G 3.2; H 1.59; N 1.61; S 3.17; R 2.63; M 3.2
L8: T 2.62; N 2.82; M 3.04; K 2.85; P 2.31; Q 1.56; H 2.3; W 1.89; F 3.06; S 3.06; I 3.67; D 3.48
K3: G 3.98; D 2.21; P 1.89; W 2.91; Q 1.21; T 2.97
K10: M 2.47; E 2.11; T 2.23; F 3.36; N 1.9; H 1.38; C 4.27; P 3.19; D 3.4; A 3.24; V 1.83; L 4.27
Q5: W 3.59; P 2.97; H 2.65; L 3.08; D 4.34; N 1.79; F 2.56; K 2.89; V 2.77
V6: C 3.2; D 1.47; P 2.85; S 2.98; L 2.91; T 2.73; F 3.19; Q 1.74; A 2.24; G 2.2; M 3.76; N 2.61; W 1.54; H 4.18; K 2.01
